Experimental data as given in the DeepSol protein solubility set.

assay: soluble on expression in E. coli; label from the status in PepcDB or PDB records

| Sequence | soluble on expression in E. coli |
| --- | --- |
| MSLSSEVVLMKPYEKLVERFNEMAAEFLSYFPTVKSVGNLESELDKRRFVILFRAMLRLRNEVKGYNEFDAEDLTIEEQRFADYQSKYLDMSNEFAITSEKEDAESILQDIDFELELVHRDIINVMYILALLQDLKPESSSYPKDRKAVLDTMDSNPELRSKIALIDNFIKLHIDGRQSNDLPADMESDLDKYIATQKAIAIEQVATEEGIDSTLLHEYISEYEYLGKPKNEIIKRAIDPLKLSFMDAQSKKKSLIDKMKDIIKLFSWNEGHHHHHH | soluble |
| ASRPHQWQTDEEGVRTGKCSFPVKYLGHVEVDESRGMHICEDAVKRLKATGKKAVKAVLWVSADGLRVVDEKTKDLIVDQTIEKVSFCAPDRNFDRAFSYICRDGTTRRWICHCFMAVKDTGERLSHAVGCAFAACLERKQKR | soluble |
| MYSCTSPSGIKVSLSTPEIWEEFYPKTEMIVTRNRGRVIFPHLDYIIKGLDPGSLYSIYIHLERVDGIKYKFDAGEWKEFAKGDPILPIQYKEHPRGKRTGAEWMSEPVSFAHIKITNNPEIKDQKVILVQSMHKHIPVVTVKQVRHYKTGYQEDFSGEQFRLEATEFMVVTAYQNEILKNLKVHHNKFASGFRSNGKRRLSSDSENSENSPPKRSKLVTPPTISPQIDLPQQTPYYFNQNFVAPQNYQPQFASAQNYNFEVQNNAQLAWNMYYQKQYEFWWQQQQMMMPGQPQELKNEFQSL | not soluble |
| MGSDKIHHHHHHMIKNFVLDTNVLLYDPQAIFKFEENNIIIPITVIEEIDRFKKDMNETGRNARQLSRYLDEMRATGSLANGIALETGGTLRVEMYEEKFMKVLPPELREERGDNRILAVALRVKEQDEATPVIFVTKDTNLRIKSDALGLKAEDYESDKVDIEELYPGFTELEVSAEMVDRFHGQGWVDLTGYDLHPNQFVTLRDAANPSHTALGKYRADQKRITPIAKNGKDGVWSIHPRNREQAFAFDALLDDSIKLVTLVGKAGTGKTLLAIAAGLHKTAEENVYNRLLVSRPVFPMGRDLGFLPGDIEEKLTPWMQPIFDNVELLLSGHEAEKRHSKGYKELMAMGIMDIEPLTYIRGRSIPLQFMIVDEAQNLTPHEIKTIITRAGEGTKIVLTGDPYQIDNPYVDASSNGLTYVVERFKGVPIAGHVTMTKGERSELAELAANLL | not soluble |
| MLSSTCTAAVRGLSTTAQLSKINNVTIIGAGLMGSGIAQVSANAKLNVTVVDSNQSALEKAQQGIANSLKRVAKKKHADDAAAQTALVSSVLDRIKMSTNVSDSVKDADLVIEAIVENIDIKRKLFAEVEVAAKPTTLITTNTSSLRLADIGLNLKDKSRFGGLHFFNPVPMMKLLEVVRHTETSDATFNQLVDYGKTVGKTTVACKDTPGFIVNRLLVPYMFEALRLYERGDASMEDIDVAMKLGAGYPMGPFELSDYVGLDTCKFIMDGWHAQYPEEVAFTPSPLLNSLVDSGKNGRKSGEGFYKYK | not soluble |
| QKLGDGHYVMDGKVRIDQVNSLLGASIQEDVDTIGGLILKENIDIEAGESIRIGSYTIKVLKMDGRLIKQIDIKEEAGNTTGITAHHKLPLPEPVMLNSATLSEK | not soluble |
| MPESSRDKGNAAISGNRSVLSIASPTKLNILSSDWSRNQGKVSKNSLKRSSSLNIRNSKRPSLQASANSIYSRPKITIGAPPLIRRDSSFFKDEFDAKKDKATFSAYSSRSYPTIGSESVVSQTSLSQPTTSREVDEQFTVAADRYIPILQGASQNKVDPETLHEALPPPNASPISHLRAQTKIVFKQNVAEACGLDMNKRILQYMPEPPKCSSLRQKSYIMKKRTHYSYQQEQKIPDLIKLRKINTNPERILDAPGFQDDFYLNLLSWSKKNVLAIALDTALYLWNATTGDVSLLTDFENTTICSVTWSDDDCHISIGKEDGNTEIWDVETMSLIRTMRSGLGVRIGSLSWLDTLIATGSRSGEIQINDVRIKQHIVSTWAEHTGEVCGLSYKSDGLQLASGGNDNTVMIWDTRTSLPQFSKKTHTAAVKALSWCPYSPNILASGGGQTDKHIHFWNSITGARVGSINTGSQVSSLHWGQSHTSTNGGMMNKEIVATGGNPENAISVYNYETKFKVAEVVHAHEARICCSQLSPDGTTLATVGGDENLKFYKIFDPRCTGRSREDGLMDGMLGLIGKEGCRTNDKENRSKNSSEIHTRRPSSTSQYLIR | not soluble |
| ERYGALAVPVGPGNLDIQTTFLVDLQSTVVCCTASMGLLLAEEVQRRNLRDKIAVRKVILGAERSSEAILAKIRECLGAESVHDITGLTEVYGPGTGLSCGVPGADGSI | not soluble |
| MGSDKIHHHHHHMGNEVYDAVVVGAGFAGLTAARELSRQGLAVHIVEARDRIGGRTWLDHRLGRDLEIGGTWVHWTQPHVWAELTRYGLETTPSPEPERAFWWADGCRHEGRPDELLGLIGQTNEEFVRDSRKYFPEPFRPMARDDFKSIDHVSVQARIREQFPAGAPRDILESFWALNFNGPLDNAALTQAFRWVALTNGDWAVNFEACATYKIVGGTAALAASMLADSGAGIQYGFKVEAVAEDADVVEIRSADGRTVRARTAIVTVPLHALNAVDFEPPLPAAKAEAASLGQVSKGAKVWFRLRGEHAPFVALGGADWPLNFFQVEYALDGDTIAVGFGPDAAKIEVEDPVAVQAQLARLVPGAEVVAVASHNWVDDPLSGETWPMHRTGFLSTHLPAMQASHGLVLFAGSDIANGWCGFIDGAIESGMGAALDAASLLAGGRP | not soluble |
| KAELKMLEAIEEDLNTRFADVDRKQLRLGAAGTFQKQEDADQWYKMVKDTFENEIDDIYYDSLSFSIGCHVGPNAIGIGISVVTRDEK | not soluble |
| MSFDREEDQKLKFKTSKKLKVSSTFESMNLKDDLLRGIYSYGFEAPSSIQSRAITQIISGKDVIAQAQSGTGKTATFTIGLLQAIDLRKKDLQALILSPTRELASQIGQVVKNLGDYMNVNAFAITGGKTLKDDLKKMQKHGCQAVSGTPGRVLDMIKKQMLQTRNVQMLVLDEADELLSETLGFKQQIYDIFAKLPKNCQVVVVSATMNKDILEVTRKFMNDPVKILVKRDEISLEGIKQYVVNVDKEEWKFDTLCDIYDSLTITQCVIFCNTKKKVDWLSQRLIQSNFAVVSMHGDMKQEERDKVMNDFRTGHSRVLISTDVWARGIDVQQVSLVINYDLPEIIENYIHRIGRSGRFGRKGVAINFITKADLAKLREIEKFYSIKINPMPANFAELS | soluble |
| KILSVGSFGCNFVCDFCQNYDISQRKARSTFAPKEELIRIAMTTEDNIGLAFTYNEPSIWYEYMYDCAKLLKETDEKRSVVFVTNGFLSEEPLKKLLPYVDAMNIDLKSFKESYYKSLCGGRLNPVLETIKMAAKVCHVEVTTLLVSGENDNLDEIEEIAKFLASVNSEIPLHLSRYFPRYKLENPPTDVEFMQEAKKTAEKYLKRVMLGNV | not soluble |
| MSLGFIEEIKSALGNYVITEKKDLIPYMNDASYFTGEMPEAVVLPGSAEDVQTIMRLAYKYEKPVVVKGGGSSLTGSSILKESGIVMSMLRMNRILDINLNDKCVTVEPGLRLNDLQLYLDKYGHFYPPDPASSMAATVGGSISTNAGGLRGVAYGVTKDWILGLDVVLADGTMVKFGNKTLKRTLGYDLTSLMIGSEGTLGVITKAYLKIWPKPQKVARLVAFYQDIESAGRAVNELKVSTIPEMAEFLDKISLDSVPEAITYPPGTKYALIIDVSGPPELLGKKKTETEELLKRYAISTKSTTDPAEMEKIYRARKGLYASILKLRKSEKEYIVIGDIVVPVSELPTSLKEIEKKRDEDGVRAAIFGHIGDGNIHANIFADLGDNSAMDKVNRFMMDLAMVAVKHGGSVSAEHGIGIEKKQLLIEEMKYNNNLRTLDIMKAIKQVFDPKNILNRGNIFEEGHHHHHH | soluble |
| MGSDKIHHHHHHMLNPREIRTIEDAKRIVEERQLTHVKVGLFDIDGVMLGKYMSRNKFFSALEHGFAFCDVILGWDSKDKLYDNVKYTGWHTGYPDASVRIVPSTCREILFEENQLLFMAEFSQAAEAICPRGILRRVINKAAGMGYDVYAALEYEFFVFDETPDSVRAKGFRNLKPVTPDNFGYSIIRNTVHAEFYHQILTMAEKMDFPIEGLHTETGPGVLEAAIAVDDAEAAGDKAALFKTFMKILAQRNNKMATFMAKWSGDYPGQSGHIHLSLRDRDGGKSAFYESGREYNMSKIQRHFLAGQQKLMPEFLAMLSPTVNSYSRLIPGYWAPTEATWGVENRTTALRVIPGSDKSQRIEYRLGSADANPYLALAAAIGSGLYGIENELEPEAEVKGNSYEQHHSPALALPRTLWESAQNLKNSSAAYELFGQEFVEHFAASREWEEREFRKHITDWELDRYFEII | not soluble |
| MEHFDVAIIGLGPAGSALARKLAGKMQVIALDKKHQCGTEGFSKPCGGLLAPDAQRSFIRDGLTLPVDVIANPQIFSVKTVDVAASLTRNYQRSYININRHAFDLWMKSLIPASVEVYHDSLCRKIWREDDKWHVIFRADGWEQHITARYLVGADGANSMVRRHLYPDHQIRKYVAIQQWFAEKHPVPFYSCIFDNAITDCYSWSISKDGYFIFGGAYPMKDGQTRFTTLKEKMSAFQFQFGKAVKSEKCTVLFPSRWQDFVCGKDNAFLIGEAAGFISASSLEGISYALDSAEILRAVFLKQPEKSNAAYWRATHKLRLKLFGKIVKSRCLTAPALRKWIMRSGVAHIPQLKDYPTRFTSPTSRM | not soluble |
| MIGKRFFQTTSKKIAFAFDIDGVLFRGKKPIAGASDALKLLNRNKIPYILLTNGGGFSERARTEFISSKLDVDVSPLQIIQSHTPYKSLVNKYSRILAVGTPSVRGVAEGYGFQDVVHQTDIVRYNRDIAPFSGLSDEQVMEYSRDIPDLTTKKFDAVLVFNDPHDWAADIQIISDAINSENGMLNTLRNEKSGKPSIPIYFSNQDLLWANPYKLNRFGQGAFRLLVRRLYLELNGEPLQDYTLGKPTKLTYDFAHHVLIDWEKRLSGKIGQSVKQKLPLLGTKPSTSPFHAVFMVGDNPASDIIGAQNYGWNSCLVKTGVYNEGDDLKECKPTLIVNDVFDAVTKTLEKYA | soluble |
| LLRGLLASIEHGINRVLRLDSTALPRLARLSGHVIAVDCRDPSLKIFILPSDEGLLLAADWAADADCTLRAPASSLLRLALSKDKTAVLHGPDVELEGDSGVLLELTGILQDLELDWEHELSNWVGPVASQLFSSRVRSSGRWTRESFTSLSQNVADYLSEESRTLVGNHEAEARFAELDRIKLDLDRLEARFARLAHFLNT | not soluble |
| MNERDIICAGCGVKIQTESKEMLGYTPPSALKRDVIICQRCFRMQHYNEVQDVSLTDDDFLKILHTIGERKALIVKLVDIFDFNGSWLPGLHRFVGGNDVLLIGNKVDLLPKSVNRNRMINWMRKSAKDLGLKPIDVALISGEKGIGVKEVASLIDRLRKGKDVYVVGATNVGKSTFINKMIQIFGGDEEQMITTSHFPGTTLDMIDIPLDDGKTLYDTPGIINHHQMAHYVAKNELKLITPKKEIKPKVFQLNEEQTLFFGGLARFDFVKGERTSFVCYVSNDLFIHRTKLEKADELYEKRLGDVLTPPEDPQHLPSLVKHEFTIRVQKVDVVISGLGWVTVNGTNVKVCAYAPEGVGVSIRESLILEHHHHHH | soluble |
| MTTSHRPQLEARSGAKAAAYTPTGIEHARLLPGHTTLKYRKFKEEENLRANCAQEDRSNDKSLEEAVMNEEKQDVVGSGNLQETRSEKDQKDSLQELLVTQKNKVEDKAELEGNEQLKGGNSSRRSWRKGTAFGRHKVTKETNIKEHATKKSASGYINDMTKSEYHQEFLHKHVR | not soluble |
| AMNLIFLGTSAGVPTRTRNVTAILLNLQHPTQSGLWLFDCGEGTQHQLLHTAFNPGKLDKIFISHLHGDHLFGLPGLLCSRSMSGIIQPLTIYGPQGIREFVETALRISGSWTDYPLEIVEIGAGEILDDGLRKVTAYPLEHPLECYGYRIEEHDAPGALNAQALKAAGVPPGPLFQELKAGKTITLEDGRQINGADYLAAPVPGKALAIFGDTGPCDAALDLAKGVDVMVHEATLDITMEAKANSRGHSSTRQAATLAREAGVGKLIITHVSSRYDDKGCQHLLRECRSIFPATELANDFTVFNV | soluble |
